Laboratory results as given in US20180066036A1 (APOGENIX, published 2018).

How the values were obtained:
[1] = target: CD40 (native receptor on the surface of human cells) (human, UniProt P25942 21-277); experiment: cell-based or functional assay
[2] = target: T1, human CD40-Fc (Enzo, catalogue number ALX-522-016-C050) (human, UniProt P25942 21-193); experiment: QCM (Attana A100), human CD40-Fc immobilized, analyte at 1, 5 and 10 µg/ml
T1 construct: Bought reagent; also called immobilized CD40-receptor; not shown: Fc part of the bought fusion protein, not described
T1 sequence (P25942 21-193 limits assumed): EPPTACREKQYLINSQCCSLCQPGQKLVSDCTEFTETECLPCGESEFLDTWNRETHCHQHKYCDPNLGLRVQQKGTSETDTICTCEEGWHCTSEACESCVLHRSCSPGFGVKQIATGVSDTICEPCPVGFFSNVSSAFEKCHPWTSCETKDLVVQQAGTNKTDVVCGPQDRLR
Description: The equilibrium binding constants (KD) of trivalent constructs of CD40L (e.g.: PROTEIN X) and hexavalent constructs of CD40L (e.g. PROTEIN A, PROTEIN B, and PROTEIN C) to CD40 was calculated based on kinetic binding data (kₒₙ and koff) determined with an automated biosensor system (Attana A100). The A100 allows to investigate molecular interactions in real-time based on the Quartz Crystal Microbalance (QCM) technique.
For this purpose human CD40-Fc, purchased from Enzo (catalogue number: ALX-522-016-C050), was immobilized on the surface of a carboxyl-activated QCM-chip. Trimeric and hexameric CD40L-constructs were used as soluble analyte at concentrations of 1, 5, and 10 μg/ml. Binding (kₒₙ) and dissociation (koff) was analyzed.

Chain of CD40 (native receptor on the surface of human cells) (P25942 21-277): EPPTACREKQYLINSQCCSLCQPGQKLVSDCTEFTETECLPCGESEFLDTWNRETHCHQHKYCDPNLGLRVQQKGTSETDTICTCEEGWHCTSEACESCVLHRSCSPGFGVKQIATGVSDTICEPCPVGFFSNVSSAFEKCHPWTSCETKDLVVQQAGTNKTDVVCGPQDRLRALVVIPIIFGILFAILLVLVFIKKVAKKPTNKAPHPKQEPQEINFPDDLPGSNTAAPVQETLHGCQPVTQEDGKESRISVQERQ

CD86 (MFI), monocytes 3 d, 10 ng/mL [1] [MFI]	CD86 (MFI), monocytes 3 d, 100 ng/mL [1] [MFI]	CD86 (MFI), monocytes 3 d, 1000 ng/mL [1] [MFI]	HLA-DR,DP (MFI), monocytes 3 d, 10 ng/mL [1] [MFI]	HLA-DR,DP (MFI), monocytes 3 d, 100 ng/mL [1] [MFI]	HLA-DR,DP (MFI), monocytes 3 d, 1000 ng/mL [1] [MFI]	Percentage of macrophages that are CD86+, 3 d, 10 ng/mL [1] [%]	Percentage of macrophages that are CD86+, 3 d, 100 ng/mL [1] [%]	Percentage of macrophages that are CD86+, 3 d, 1000 ng/mL [1] [%]	Percentage of macrophages that are CD206+ and CD163+ (M2-like), 3 d, 10 ng/mL [1] [%]	Percentage of macrophages that are CD206+ and CD163+ (M2-like), 3 d, 100 ng/mL [1] [%]	Percentage of macrophages that are CD206+ and CD163+ (M2-like), 3 d, 1000 ng/mL [1] [%]	Percentage of macrophages that are HLA-DR,DP+, 3 d, 10 ng/mL [1] [%]	Percentage of macrophages that are HLA-DR,DP+, 3 d, 100 ng/mL [1] [%]	Percentage of macrophages that are HLA-DR,DP+, 3 d, 1000 ng/mL [1] [%]	Kd [2] [nM]	Binder
11	12	11	26	29	22	7	7	8	21	23	21	5	7	2		PROTEIN-X2 (ligand) QIAAHVISEASSKTTSVLQWAEKGYYTMSNNLVTLENGKQLTVKRQGLYYIYAQVTFCSNREASSQAPFIASLCLKSPGRFERILLRAANTHSSAKPCGQQSIHLGGVFELQPGASVFVNVTDPSQVSHGTGFTSFGLLKLGSSSSSSAWSHPQFEK
11	11	12	26	26	31	7	8	16	17	21	10	5	6	12	9.05	PROTEIN X (ligand, Three identical polypeptides; also called trivalent control protein; homotrimeric CD40L-RBD stabilized by RB69 trimerisation scaffold) QIAAHVISEASSKTTSVLQWAEKGYYTMSNNLVTLENGKQLTVKRQGLYYIYAQVTFCSNREASSQAPFIASLCLKSPGRFERILLRAANTHSSAKPCGQQSIHLGGVFELQPGASVFVNVTDPSQVSHGTGFTSFGLLKLGSGSSGSSGSSGSGYIEDAPSDGKFYVRKDGAWVELPTASGPSSSSSSAWSHPQFEK
